Data published in the supplement of paper PMC9112550, “Optimization of the antimicrobial peptide Bac7 by deep mutational scanning” (BMC Biology, 2022).
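Note: peptides expressed intracellularly from a pBAD plasmid library in pooled LB shake-flask culture, induced with 0.3% L-arabinose, DNA abundance read by NGS, three biological replicates, DESeq2 with apeglm shrinkage.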

These sequences were tested on Escherichia coli TOP10 (assay: shrunken log2 fold change of peptide-encoding DNA abundance (4.5 h post-induction vs induction); higher = less antimicrobial activity (less host growth inhibition)). Conditions: time post-induction: 4.5 h; library: site-saturation at positions 5, 18, 19, 20.
With RRIRQRPPRLPRPRPRPYHWPRP the “shrunken log2 fold change” value was -0.0766.
RRIRSRPPRLPRPRPRPRIMPRP was tested, and the “shrunken log2 fold change” value was -0.105.
RRIRSRPPRLPRPRPRPGVMPRP was tested, and the “shrunken log2 fold change” value was 0.161.
In the case of RRIRQRPPRLPRPRPRPLHCPRP, the “shrunken log2 fold change” value is reported as -0.183.
RRIRARPPRLPRPRPRPQPWPRP was tested, and the “shrunken log2 fold change” value was 0.536.
With RRIRRRPPRLPRPRPRPSHTPRP the “shrunken log2 fold change” value was 0.278.
With RRIRMRPPRLPRPRPRPLFVPRP the “shrunken log2 fold change” value was 0.286.
For RRIRIRPPRLPRPRPRPHFKPRP, the “shrunken log2 fold change” value was -0.368.
For RRIRKRPPRLPRPRPRPIPTPRP, the “shrunken log2 fold change” value was 0.397.
In the case of RRIRHRPPRLPRPRPRPYKRPRP, the “shrunken log2 fold change” value is reported as -0.051.
RRIRERPPRLPRPRPRPGPAPRP was tested, and the “shrunken log2 fold change” value was 0.439.
For RRIRPRPPRLPRPRPRPDPYPRP, the “shrunken log2 fold change” value was 0.0668.
With RRIRQRPPRLPRPRPRPNNTPRP the “shrunken log2 fold change” value was -0.578.
With RRIRNRPPRLPRPRPRPWPLPRP the “shrunken log2 fold change” value was -0.0801.
With RRIRERPPRLPRPRPRPCKMPRP the “shrunken log2 fold change” value was -0.427.
For RRIRFRPPRLPRPRPRPNKDPRP, the “shrunken log2 fold change” value was 0.539.
With RRIRHRPPRLPRPRPRPDVFPRP the “shrunken log2 fold change” value was -0.37.
For RRIRCRPPRLPRPRPRPSCTPRP, the “shrunken log2 fold change” value was -0.287.
For RRIRVRPPRLPRPRPRPVVFPRP, the “shrunken log2 fold change” value was 0.00477.
In the case of RRIRLRPPRLPRPRPRPHCCPRP, the “shrunken log2 fold change” value is reported as -0.376.
For RRIRCRPPRLPRPRPRPAWGPRP, the “shrunken log2 fold change” value was 0.193.
For RRIRVRPPRLPRPRPRPDCHPRP, the “shrunken log2 fold change” value was -0.296.
RRIRYRPPRLPRPRPRPDKTPRP was tested, and the “shrunken log2 fold change” value was 0.0325.
For RRIRVRPPRLPRPRPRPILEPRP, the “shrunken log2 fold change” value was 0.13.
For RRIRHRPPRLPRPRPRPTGLPRP, the “shrunken log2 fold change” value was -0.515.
In the case of RRIRKRPPRLPRPRPRPPKLPRP, the “shrunken log2 fold change” value is reported as 0.658.
In the case of RRIRWRPPRLPRPRPRPGQWPRP, the “shrunken log2 fold change” value is reported as 0.032.
RRIRARPPRLPRPRPRPTMPPRP was tested, and the “shrunken log2 fold change” value was 0.364.
For RRIRVRPPRLPRPRPRPKHGPRP, the “shrunken log2 fold change” value was -0.0119.
In the case of RRIRMRPPRLPRPRPRPTATPRP, the “shrunken log2 fold change” value is reported as 3.59.
With RRIRRRPPRLPRPRPRPYSMPRP the “shrunken log2 fold change” value was -1.39.
For RRIRLRPPRLPRPRPRPRLVPRP, the “shrunken log2 fold change” value was 0.0317.
In the case of RRIRWRPPRLPRPRPRPMAAPRP, the “shrunken log2 fold change” value is reported as 0.318.
In the case of RRIRGRPPRLPRPRPRPAWFPRP, the “shrunken log2 fold change” value is reported as 0.652.
For RRIRTRPPRLPRPRPRPRTAPRP, the “shrunken log2 fold change” value was 2.87.
With RRIRQRPPRLPRPRPRPIVYPRP the “shrunken log2 fold change” value was -0.311.
In the case of RRIRKRPPRLPRPRPRPHLDPRP, the “shrunken log2 fold change” value is reported as 0.00976.
For RRIRWRPPRLPRPRPRPYIYPRP, the “shrunken log2 fold change” value was -0.541.
In the case of RRIRQRPPRLPRPRPRPRTYPRP, the “shrunken log2 fold change” value is reported as -0.049.
RRIRQRPPRLPRPRPRPGSTPRP was tested, and the “shrunken log2 fold change” value was -0.146.
RRIRYRPPRLPRPRPRPCWPPRP was tested, and the “shrunken log2 fold change” value was 0.0499.
RRIRRRPPRLPRPRPRPPTPPRP was tested, and the “shrunken log2 fold change” value was 0.769.
For RRIRSRPPRLPRPRPRPKECPRP, the “shrunken log2 fold change” value was -0.043.
RRIRRRPPRLPRPRPRPRKQPRP was tested, and the “shrunken log2 fold change” value was -0.0686.
With RRIRERPPRLPRPRPRPHNHPRP the “shrunken log2 fold change” value was -0.734.
With RRIRLRPPRLPRPRPRPWCIPRP the “shrunken log2 fold change” value was 0.0272.
With RRIRGRPPRLPRPRPRPYLQPRP the “shrunken log2 fold change” value was -0.182.
RRIRPRPPRLPRPRPRPPIKPRP was tested, and the “shrunken log2 fold change” value was 0.355.
RRIRFRPPRLPRPRPRPNGKPRP was tested, and the “shrunken log2 fold change” value was 0.0809.
For RRIRRRPPRLPRPRPRPWKLPRP, the “shrunken log2 fold change” value was -0.0807.
For RRIRHRPPRLPRPRPRPYCSPRP, the “shrunken log2 fold change” value was -0.337.
In the case of RRIRVRPPRLPRPRPRPHRRPRP, the “shrunken log2 fold change” value is reported as -0.328.
With RRIRSRPPRLPRPRPRPPGRPRP the “shrunken log2 fold change” value was 0.482.
In the case of RRIRYRPPRLPRPRPRPMQLPRP, the “shrunken log2 fold change” value is reported as 0.219.
With RRIRWRPPRLPRPRPRPRIVPRP the “shrunken log2 fold change” value was 0.0526.
